Measured values published in publication PMC10454580, “Exploring the Binding Affinity of the ARR2 GARP DNA Binding Domain via Comparative Methods”.

Tests used:
Settings in all cases: protein: recombinant; tags: N-terminal 8xHis-MBP; label: 5' biotin on antisense strand (DPI-ELISA); 5' Alexa647 on antisense strand (FCS); unlabeled (MST); blunt
[1] = biological target: T1, His8-MBP-GARP2 (ARR2 GARP DNA-binding domain) (UniProt Q9ZWJ9 211-275); experiment: MST; thermophoresis 49/3; bounds 200.6-1912.2; MST: PBS-T, 250 nM protein, 25 nM RED-tris-NTA, 40% MST power, 22-26 C; FCS: PBS, 25 C; qDPI-ELISA: TBS/TBS-T (20 mM Tris, 0.18 M NaCl, pH 7.5, 0.1% Tween-20)
T1 sequence: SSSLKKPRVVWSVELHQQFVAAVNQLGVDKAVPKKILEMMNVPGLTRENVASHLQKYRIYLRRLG

[2] = biological target: T1, His8-MBP-GARP2 (ARR2 GARP DNA-binding …); experiment: MST; inverse T-jump 6/5; bounds 471.3-1412.8; MST: PBS-T, 250 nM protein, 25 nM RED-tris-NTA, 40% MST power, 22-26 C; FCS: PBS, 25 C; qDPI-ELISA: TBS/TBS-T (20 mM Tris, 0.18 M NaCl, pH 7.5, 0.1% Tween-20)
[3] = biological target: T1, His8-MBP-GARP2 (ARR2 GARP DNA-binding …); experiment: MST; thermophoresis 45/3; bounds 218.2-1077.2; MST: PBS-T, 250 nM protein, 25 nM RED-tris-NTA, 40% MST power, 22-26 C; FCS: PBS, 25 C; qDPI-ELISA: TBS/TBS-T (20 mM Tris, 0.18 M NaCl, pH 7.5, 0.1% Tween-20)
[4] = biological target: T1, His8-MBP-GARP2 (ARR2 GARP DNA-binding …); experiment: MST; thermophoresis 47/3; bounds 202.0-1474.6; MST: PBS-T, 250 nM protein, 25 nM RED-tris-NTA, 40% MST power, 22-26 C; FCS: PBS, 25 C; qDPI-ELISA: TBS/TBS-T (20 mM Tris, 0.18 M NaCl, pH 7.5, 0.1% Tween-20)
[5] = biological target: T1, His8-MBP-GARP2 (ARR2 GARP DNA-binding …); experiment: MST; thermophoresis 48/3; bounds 240.8-1742.8; MST: PBS-T, 250 nM protein, 25 nM RED-tris-NTA, 40% MST power, 22-26 C; FCS: PBS, 25 C; qDPI-ELISA: TBS/TBS-T (20 mM Tris, 0.18 M NaCl, pH 7.5, 0.1% Tween-20)
[6] = biological target: T1, His8-MBP-GARP2 (ARR2 GARP DNA-binding …); experiment: MST; thermophoresis 410/3; bounds 211.1-2267.5; MST: PBS-T, 250 nM protein, 25 nM RED-tris-NTA, 40% MST power, 22-26 C; FCS: PBS, 25 C; qDPI-ELISA: TBS/TBS-T (20 mM Tris, 0.18 M NaCl, pH 7.5, 0.1% Tween-20)
[7] = biological target: T1, His8-MBP-GARP2 (ARR2 GARP DNA-binding …); experiment: MST; thermophoresis 44/3; bounds 229.7-868.7; MST: PBS-T, 250 nM protein, 25 nM RED-tris-NTA, 40% MST power, 22-26 C; FCS: PBS, 25 C; qDPI-ELISA: TBS/TBS-T (20 mM Tris, 0.18 M NaCl, pH 7.5, 0.1% Tween-20)
[8] = biological target: T1, His8-MBP-GARP2 (ARR2 GARP DNA-binding …); experiment: MST; back diffusion 8/7; bounds 61.0-374.4; MST: PBS-T, 250 nM protein, 25 nM RED-tris-NTA, 40% MST power, 22-26 C; FCS: PBS, 25 C; qDPI-ELISA: TBS/TBS-T (20 mM Tris, 0.18 M NaCl, pH 7.5, 0.1% Tween-20)
[9] = biological target: T1, His8-MBP-GARP2 (ARR2 GARP DNA-binding …); experiment: MST; thermophoresis 41/3; bounds 250.9-787.3; MST: PBS-T, 250 nM protein, 25 nM RED-tris-NTA, 40% MST power, 22-26 C; FCS: PBS, 25 C; qDPI-ELISA: TBS/TBS-T (20 mM Tris, 0.18 M NaCl, pH 7.5, 0.1% Tween-20)
[10] = biological target: T1, His8-MBP-GARP2 (ARR2 GARP DNA-binding …); experiment: MST; thermophoresis 46/3; bounds 192.7-1173.8; MST: PBS-T, 250 nM protein, 25 nM RED-tris-NTA, 40% MST power, 22-26 C; FCS: PBS, 25 C; qDPI-ELISA: TBS/TBS-T (20 mM Tris, 0.18 M NaCl, pH 7.5, 0.1% Tween-20)
[11] = biological target: T1, His8-MBP-GARP2 (ARR2 GARP DNA-binding …); experiment: MST; thermophoresis 42/3; bounds 259.5-988.2; MST: PBS-T, 250 nM protein, 25 nM RED-tris-NTA, 40% MST power, 22-26 C; FCS: PBS, 25 C; qDPI-ELISA: TBS/TBS-T (20 mM Tris, 0.18 M NaCl, pH 7.5, 0.1% Tween-20)
[12] = biological target: T1, His8-MBP-GARP2 (ARR2 GARP DNA-binding …); experiment: MST; thermophoresis 43/3; bounds 260.4-960.9; MST: PBS-T, 250 nM protein, 25 nM RED-tris-NTA, 40% MST power, 22-26 C; FCS: PBS, 25 C; qDPI-ELISA: TBS/TBS-T (20 mM Tris, 0.18 M NaCl, pH 7.5, 0.1% Tween-20)
[13] = biological target: T1, His8-MBP-GARP2 (ARR2 GARP DNA-binding …); experiment: MST; T-jump region 2/1; ESP bounds 33.9-203.5; MST: PBS-T, 250 nM protein, 25 nM RED-tris-NTA, 40% MST power, 22-26 C; FCS: PBS, 25 C; qDPI-ELISA: TBS/TBS-T (20 mM Tris, 0.18 M NaCl, pH 7.5, 0.1% Tween-20)

B1: wtOligo (ARR5 promoter fragment) (dsDNA)
DNA 1: TTAACAATCTCAAAGATTTTGTAGATTGAAATACAAATCTTCTCT
DNA 2: AGAGAAGATTTGTATTTCAATCTACAAAATCTTTGAGATTGTTAA
Kd [1]: 0.66 ± 0.419 µM
Kd [2]: 0.827 ± 0.222 µM
Kd [3]: 0.51 ± 0.212 µM
Kd [4]: 0.579 ± 0.317 µM
Kd [5]: 0.679 ± 0.376 µM
Kd [6]: 0.738 ± 0.505 µM
Kd [7]: 0.463 ± 0.163 µM
Kd [8]: 0.166 ± 0.0743 µM
Kd [9]: 0.456 ± 0.132 µM
Kd [10]: 0.506 ± 0.246 µM
Kd [11]: 0.526 ± 0.178 µM
Kd [12]: 0.52 ± 0.172 µM
Kd [13]: 0.0933 ± 0.0403 µM
